Literature values, collected in patent US20230285262A1, “Skin Compositions and Uses” (Stemetrix, Inc., priority 2013, published 2023).

What was measured:
[1] = tested on: FDC-P1 cells
[2] = tested on: mouse HT-2 cells
[3] = tested on: balb/c 3T3 cells
[4] = tested on: erythropoiesis-stimulating response; details: per mg of protein
[5] = commercial preparation judged 98% pure

For “IGF-1: insulin-like growth factor-1, commercial preparation judged 98% pure by PAGE and HPLC”, the ED50 [1, 5] is given as 2.0 ng/mL and the specific activity ([1]; corresponding to ED50) is given as ≥ 5×10^5 units/mg.
In the case of “TGFβ3: human transforming growth factor beta-3, commercial preparation judged 98% pure by PAGE and HPLC”, the “expected ED50” value [2, 5] is listed as 0.05 ng/mL and the specific activity ([2]; corresponding to ED50) is listed as ≥ 2×10^7 units/mg.
For “EGF: human epidermal growth factor, commercial preparation judged 98% pure by PAGE and HPLC”, the ED50 [3, 5] is given as no more than 0.1 ng/mL and the specific activity ([3]; corresponding to ED50) is given as ≥ 1×10^7 units/mg.
In the case of “Human urinary EPO: isolated human urinary EPO, international reference standard for EPO assays”, the specific activity [4] is given as “about 70,000 U/mg”.
